This note sets out measurements from patent US20150299255A1.

For the experiment, the target named is lectin SNA1 from Sambucus nigra (Sambucus nigra) (UniProt Q41358).
lectin SNA1 from Sambucus nigra (Sambucus nigra), sequence (Q41358 29-289 limits assumed, chain 1 of 2): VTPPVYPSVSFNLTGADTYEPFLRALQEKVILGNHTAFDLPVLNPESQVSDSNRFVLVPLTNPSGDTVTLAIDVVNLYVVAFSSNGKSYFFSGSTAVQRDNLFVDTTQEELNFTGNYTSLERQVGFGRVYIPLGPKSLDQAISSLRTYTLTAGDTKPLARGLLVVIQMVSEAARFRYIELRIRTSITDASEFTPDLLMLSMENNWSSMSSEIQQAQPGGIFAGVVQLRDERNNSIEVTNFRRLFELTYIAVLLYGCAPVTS
lectin SNA1 from Sambucus nigra (Sambucus nigra), sequence (Q41358 309-570 limits assumed, chain 2 of 2): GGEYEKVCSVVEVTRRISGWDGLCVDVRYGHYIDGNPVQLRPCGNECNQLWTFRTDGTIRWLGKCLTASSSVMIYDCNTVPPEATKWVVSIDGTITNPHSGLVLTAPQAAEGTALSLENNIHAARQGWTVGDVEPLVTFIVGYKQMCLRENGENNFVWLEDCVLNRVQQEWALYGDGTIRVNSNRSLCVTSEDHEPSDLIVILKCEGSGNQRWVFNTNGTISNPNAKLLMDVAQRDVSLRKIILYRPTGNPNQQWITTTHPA

fetuin, sequence (P12763 19-359): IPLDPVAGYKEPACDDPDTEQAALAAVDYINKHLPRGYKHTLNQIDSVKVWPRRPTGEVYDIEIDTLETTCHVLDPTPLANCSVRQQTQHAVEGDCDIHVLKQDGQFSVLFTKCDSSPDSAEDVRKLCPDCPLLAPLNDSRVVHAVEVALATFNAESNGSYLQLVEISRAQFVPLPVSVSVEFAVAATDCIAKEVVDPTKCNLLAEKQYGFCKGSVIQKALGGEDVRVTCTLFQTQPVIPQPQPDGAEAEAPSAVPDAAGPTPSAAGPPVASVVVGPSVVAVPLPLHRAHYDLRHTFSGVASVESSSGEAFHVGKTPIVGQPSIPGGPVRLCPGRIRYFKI

With fetuin (from UniProt P12763 19-359), the amount of fetuin giving essentially complete inhibition of SVH1C binding (pmoles per well) was 500 and the percent inhibition of SVH1C binding at 100 pmoles fetuin per well came out at 50%.
